Assay results: article PMC9482650, “Quantitative fragmentomics allow affinity mapping of interactomes” (Nature Communications, 2022)

Columns and labels:
Assay in all cases: holdup assay
Parameters in all cases: key: below the threshold = too weak to quantify, mostly under pKd 3.1 to 4
Settings in all cases: plain residues with an end cap or a label only (N-terminal biotin on a linker: ado-ado)
FRMPD1, Q5SYB0 = target: T1, FRMPD1, Q5SYB0
T1 sequence (Q5SYB0 52-145, limits assumed, looked up): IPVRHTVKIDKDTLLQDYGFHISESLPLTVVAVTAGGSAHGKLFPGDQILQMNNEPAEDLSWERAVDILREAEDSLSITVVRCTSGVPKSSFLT

NOS1, P29475 = target: NOS1, P29475
GRIP1_5, Q9Y3R0 = target: T2, GRIP1_5, Q9Y3R0
T2 sequence (Q9Y3R0 568-668, limits assumed, looked up): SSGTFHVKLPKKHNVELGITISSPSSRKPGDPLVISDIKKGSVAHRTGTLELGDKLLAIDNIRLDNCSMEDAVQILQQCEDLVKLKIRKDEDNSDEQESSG

LIN7C, Q9NUP9 = target: T3, LIN7C, Q9NUP9
T3 sequence (Q9NUP9 88-185, limits assumed, looked up): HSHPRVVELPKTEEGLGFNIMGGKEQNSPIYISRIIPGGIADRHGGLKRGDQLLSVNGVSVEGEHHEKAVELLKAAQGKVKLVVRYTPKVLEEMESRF

PARD3_3, Q8TEW0 = target: PARD3_3, Q8TEW0
GRIP2_4, Q9C0E4 = target: GRIP2_4, Q9C0E4
IL16_3, Q14005 = target: IL16_3, Q14005
PTPN13_1, Q12923 = target: T4, PTPN13_1, Q12923
T4 sequence (Q12923 1088-1188, limits assumed, looked up): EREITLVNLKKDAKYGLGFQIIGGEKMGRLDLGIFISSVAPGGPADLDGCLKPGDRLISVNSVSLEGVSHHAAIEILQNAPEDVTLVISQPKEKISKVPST

ARHGAP21, Q5T5U3 = target: T5, ARHGAP21, Q5T5U3
T5 sequence (Q5T5U3 45-169, limits assumed, looked up): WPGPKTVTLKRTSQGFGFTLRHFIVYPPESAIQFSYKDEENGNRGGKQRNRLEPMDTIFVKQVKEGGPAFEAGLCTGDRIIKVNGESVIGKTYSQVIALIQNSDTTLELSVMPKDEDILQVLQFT

LIN7B, Q9HAP6 = target: T6, LIN7B, Q9HAP6
T6 sequence (Q9HAP6 88-185, limits assumed, looked up): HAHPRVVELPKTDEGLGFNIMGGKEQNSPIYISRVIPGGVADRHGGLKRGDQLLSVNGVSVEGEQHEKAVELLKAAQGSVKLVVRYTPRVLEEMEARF

ARHGEF11, O15085 = target: T7, ARHGEF11, O15085
T7 sequence (O15085 42-136, limits assumed, looked up): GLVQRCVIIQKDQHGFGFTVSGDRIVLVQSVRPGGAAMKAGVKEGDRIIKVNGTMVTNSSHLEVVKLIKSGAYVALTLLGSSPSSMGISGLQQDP

MAGI2_4, Q86UL8 = target: MAGI2_4, Q86UL8
MPP2, Q14168 = target: T8, MPP2, Q14168
T8 sequence (Q14168 180-250, limits assumed, looked up): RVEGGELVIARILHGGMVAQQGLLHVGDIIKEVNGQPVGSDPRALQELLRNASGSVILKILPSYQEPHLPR

PARD3B_1, Q8TEW8 = target: T9, PARD3B_1, Q8TEW8
T9 sequence (Q8TEW8 196-299, limits assumed, looked up): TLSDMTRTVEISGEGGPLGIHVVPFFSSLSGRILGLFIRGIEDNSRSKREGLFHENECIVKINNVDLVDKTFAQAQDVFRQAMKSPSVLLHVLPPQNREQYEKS

DLG4_2, P78352 = target: DLG4_2, P78352
DFNB31_3, Q9P202 = target: T10, DFNB31_3, Q9P202
T10 sequence (Q9P202 811-907, limits assumed, looked up): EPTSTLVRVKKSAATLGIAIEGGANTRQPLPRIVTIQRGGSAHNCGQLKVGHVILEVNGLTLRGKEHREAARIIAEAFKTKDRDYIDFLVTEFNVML

GIPC2, Q8TF65 = target: GIPC2, Q8TF65
LNX1_1, Q8TBB1 = target: LNX1_1, Q8TBB1
Inadl_10, Q8NI35 = target: Inadl_10, Q8NI35
NHERF3_3, Q5T2W1 = target: T11, NHERF3_3, Q5T2W1
T11 sequence (Q5T2W1 238-333, limits assumed, looked up): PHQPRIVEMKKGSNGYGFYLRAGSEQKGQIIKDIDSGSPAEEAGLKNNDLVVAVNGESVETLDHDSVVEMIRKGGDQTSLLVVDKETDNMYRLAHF

PCLO, Q9Y6V0 = target: T12, PCLO, Q9Y6V0
T12 sequence (Q9Y6V0 4491-4600, limits assumed, looked up): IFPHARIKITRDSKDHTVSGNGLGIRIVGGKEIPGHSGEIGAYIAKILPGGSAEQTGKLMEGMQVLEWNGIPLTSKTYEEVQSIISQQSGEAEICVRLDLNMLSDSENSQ

NHERF4_2, Q86UT5 = target: NHERF4_2, Q86UT5
Inadl_8, Q8NI35 = target: Inadl_8, Q8NI35
GRID2IP_2, A4D2P6 = target: GRID2IP_2, A4D2P6
GRID2IP_2, A4D2P6, sequence (A4D2P6 272-370): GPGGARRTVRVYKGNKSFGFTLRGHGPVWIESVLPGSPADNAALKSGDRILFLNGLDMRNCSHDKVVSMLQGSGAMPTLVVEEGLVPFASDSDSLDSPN

GIPC2, Q8TF65, sequence (Q8TF65 112-203): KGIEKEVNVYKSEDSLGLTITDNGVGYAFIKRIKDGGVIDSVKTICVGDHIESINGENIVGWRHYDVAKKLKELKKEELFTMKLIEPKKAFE
DLG4_2, P78352, sequence (P78352 155-259): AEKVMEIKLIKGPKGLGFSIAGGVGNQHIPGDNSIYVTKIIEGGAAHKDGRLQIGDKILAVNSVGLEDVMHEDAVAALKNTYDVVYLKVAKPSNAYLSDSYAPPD
NHERF4_2, Q86UT5, sequence (Q86UT5 220-308): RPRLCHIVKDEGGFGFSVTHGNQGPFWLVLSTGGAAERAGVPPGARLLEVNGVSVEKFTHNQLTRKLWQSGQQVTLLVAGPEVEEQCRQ
IL16_3, Q14005, sequence (Q14005 1107-1207): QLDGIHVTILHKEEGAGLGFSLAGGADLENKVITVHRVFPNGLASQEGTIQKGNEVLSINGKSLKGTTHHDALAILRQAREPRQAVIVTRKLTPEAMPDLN
MAGI2_4, Q86UL8, sequence (Q86UL8 772-865): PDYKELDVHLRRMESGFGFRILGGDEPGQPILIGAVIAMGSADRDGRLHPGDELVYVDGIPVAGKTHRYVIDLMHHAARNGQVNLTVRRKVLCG
GRIP2_4, Q9C0E4, sequence (Q9C0E4 446-548): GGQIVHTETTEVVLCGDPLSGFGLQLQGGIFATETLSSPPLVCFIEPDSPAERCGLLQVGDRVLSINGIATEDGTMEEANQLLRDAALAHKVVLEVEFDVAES
Inadl_10, Q8NI35, sequence (Q8NI35 1673-1763): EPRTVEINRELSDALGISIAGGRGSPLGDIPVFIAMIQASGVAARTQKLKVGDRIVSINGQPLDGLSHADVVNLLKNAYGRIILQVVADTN
PARD3_3, Q8TEW0, sequence (Q8TEW0 582-685): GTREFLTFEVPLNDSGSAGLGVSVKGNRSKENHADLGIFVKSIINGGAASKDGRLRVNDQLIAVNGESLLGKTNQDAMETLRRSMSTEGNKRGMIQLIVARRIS
Inadl_8, Q8NI35, sequence (Q8NI35 1425-1530): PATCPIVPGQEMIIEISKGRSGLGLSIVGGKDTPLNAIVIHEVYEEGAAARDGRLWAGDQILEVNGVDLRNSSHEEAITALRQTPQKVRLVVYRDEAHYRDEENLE
LNX1_1, Q8TBB1, sequence (Q8TBB1 261-371): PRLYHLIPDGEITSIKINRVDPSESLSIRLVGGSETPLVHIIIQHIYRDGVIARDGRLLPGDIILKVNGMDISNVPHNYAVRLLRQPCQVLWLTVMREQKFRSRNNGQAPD
NOS1, P29475, sequence (P29475 9-101): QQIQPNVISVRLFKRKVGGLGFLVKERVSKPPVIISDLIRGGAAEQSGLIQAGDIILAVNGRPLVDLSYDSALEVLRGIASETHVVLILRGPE

Binder | pKd (FRMPD1, Q5SYB0) | pKd (NOS1, P29475) | pKd (GRIP1_5, Q9Y3R0) | pKd (LIN7C, Q9NUP9) | pKd (PARD3_3, Q8TEW0) | pKd (GRIP2_4, Q9C0E4) | pKd (IL16_3, Q14005) | pKd (PTPN13_1, Q12923) | pKd (ARHGAP21, Q5T5U3) | pKd (LIN7B, Q9HAP6) | pKd (ARHGEF11, O15085) | pKd (MAGI2_4, Q86UL8) | pKd (MPP2, Q14168) | pKd (PARD3B_1, Q8TEW8) | pKd (DLG4_2, P78352) | pKd (DFNB31_3, Q9P202) | pKd (GIPC2, Q8TF65) | pKd (LNX1_1, Q8TBB1) | pKd (Inadl_10, Q8NI35) | pKd (NHERF3_3, Q5T2W1) | also measured
LSEFKAMDSF [CTNNA2, P26232] | below the threshold | below the threshold | below the threshold | below the threshold | below the threshold | below the threshold | below the threshold | below the threshold | below the threshold | 3.85 | below the threshold | below the threshold | below the threshold | 3.59 | below the threshold | below the threshold | below the threshold | below the threshold | below the threshold | below the threshold | pKd (PCLO, Q9Y6V0): below the threshold; pKd (NHERF4_2, Q86UT5): below the threshold; pKd (Inadl_8, Q8NI35): below the threshold; pKd (GRID2IP_2, A4D2P6): below the threshold
RQSILFSTEV [BCR, P11274] | below the threshold | below the threshold | below the threshold | 3.63 | below the threshold | below the threshold | below the threshold | below the threshold | below the threshold | below the threshold | 5.19 | 4.88 | below the threshold | below the threshold | 4.81 | below the threshold | 3.56 | 4.85 | 4.32 | below the threshold | pKd (PCLO, Q9Y6V0): below the threshold; pKd (NHERF4_2, Q86UT5): below the threshold; pKd (Inadl_8, Q8NI35): 4.49; pKd (GRID2IP_2, A4D2P6): 4.3
EEDTAEKDEL [HSPA5, P11021] | below the threshold | below the threshold | below the threshold | below the threshold | below the threshold | below the threshold | below the threshold | below the threshold | 4.05 | below the threshold | 3.56 | 3.55 | below the threshold | 3.72 | 3.5 | 4.19 | 3.55 | 3.87 | below the threshold | below the threshold | pKd (PCLO, Q9Y6V0): below the threshold; pKd (NHERF4_2, Q86UT5): below the threshold; pKd (Inadl_8, Q8NI35): below the threshold; pKd (GRID2IP_2, A4D2P6): below the threshold
PLDSQQHTEV [FAT1, Q14517] | below the threshold | below the threshold | below the threshold | below the threshold | below the threshold | below the threshold | below the threshold | below the threshold | 3.85 | below the threshold | 4.67 | below the threshold | below the threshold | below the threshold | 4.8 | below the threshold | 3.89 | below the threshold | below the threshold | below the threshold | pKd (PCLO, Q9Y6V0): below the threshold; pKd (NHERF4_2, Q86UT5): below the threshold; pKd (Inadl_8, Q8NI35): below the threshold; pKd (GRID2IP_2, A4D2P6): 3.84
PELESKESVL [SLC1A4, P43007] | below the threshold | 3.65 | below the threshold | 4.28 | 3.87 | below the threshold | below the threshold | below the threshold | 4.07 | below the threshold | 3.94 | below the threshold | below the threshold | 4.21 | 3.91 | below the threshold | below the threshold | below the threshold | below the threshold | below the threshold | pKd (PCLO, Q9Y6V0): below the threshold; pKd (NHERF4_2, Q86UT5): below the threshold; pKd (Inadl_8, Q8NI35): below the threshold; pKd (GRID2IP_2, A4D2P6): 3.91
SMLNRRTTPV [CACNG4, Q9UBN1] | below the threshold | 3.98 | below the threshold | below the threshold | below the threshold | below the threshold | below the threshold | below the threshold | 3.97 | below the threshold | 3.89 | 3.52 | below the threshold | below the threshold | 4.88 | below the threshold | below the threshold | below the threshold | below the threshold | below the threshold | pKd (PCLO, Q9Y6V0): below the threshold; pKd (NHERF4_2, Q86UT5): below the threshold; pKd (Inadl_8, Q8NI35): 4.29; pKd (GRID2IP_2, A4D2P6): 3.92
